Test results: US20250195685A1 (CAPSTAN THERAPEUTICS, published 2025)
Changes are numbered by the printed parent chain. Names may count otherwise.

Columns and labels:
[1] = molecular target: T1, human CD8αα homodimer, recombinant protein (Acro Biosystems) (human, UniProt P01732 22-182); assay: BLI kinetics, F(ab) on biotinylated CD8α (SA-XT sensor), 1:1 fit, 30 °C
T1 construct: also called CD8αα antigen; biotinylated CD8α recombinant protein (CDA-H82E3)
Description: (§1) Biolayer interferometry kinetic assays were performed using a GatorBio Gator Plus BLI system. Kinetic buffer containing PBS plus 0.1% Tween 20 and 0.2% BSA was used for calculating the baseline. To measure the binding kinetics of anti-CD8α antibody fragment (Fab), streptavidin-immobilized SA-XT sensors (#160029, Gator Bio) were prehydrated in the kinetic buffer and loaded with […] biotinylated CD8α recombinant protein (CDA-H82E3, Acro Biosystems) at a spin speed of 400 rpm to a threshold response of 10 nm. The sensors were then incubated in the kinetic buffer for 300 s to acquire a baseline measurement prior to each association. […] The antigen-loaded sensors were incubated in the diluted solutions to capture Fab fragments for 300 s to record the association phase. Sensors were finally incubated in the kinetic buffer for 900 s to record the dissociation phase. The spin speed for all steps except the antigen loading step was 1000 rpm. The temperature of the performed assays was either 30° C. or 37° C. during the association and dissociation phases. Sensor data were baseline subtracted, and global curve fitting of the kinetic data from six different analyte concentrations at a 1:1 monovalent binding model was performed using GatorOne software (version v2.10) to determine kinetic rate constants (kₒₙ and koff) and equilibrium dissociation constants (KD) of the analyzed antibodies.

[2] = molecular target: T1, human CD8αα homodimer, recombinant …; assay: BLI kinetics, F(ab) on biotinylated CD8α (SA-XT sensor), 1:1 fit, 37 °C [CONT'ED]
Description: as §1

[3] = molecular target: T1, human CD8αα homodimer, recombinant …; assay: BLI kinetic rate analysis, Fab fragment (temperature not given)
Description: as §1

[4] = molecular target: T1, human CD8αα homodimer, recombinant …; assay: BLI kinetic assay, engineered F(ab') fragment
Description: The global fitting was performed with a 1:1 fitting model using GatorOne software as described below.
as §1

[5] = molecular target: T1, human CD8αα homodimer, recombinant …; assay: BLI steady state, whole hIgG1-LALAPA antibody on CD8α-His (Ni-NTA sensor), 30 °C
Description: To assess affinity of whole antibodies, steady state analysis was used as the bivalent nature of both whole antibody and CD8α complicates kinetic analysis. 50 nM CD8α-His (that is, CD8α with a C-terminal oligohistidine tag; Acro) was immobilized on Ni-NTA sensor probes. Binding was analyzed with a three-fold antibody dilutions series: 60 nM, 20 nM, 6.67 nM, 2.22 nM, 0.74 nM, and 0.25 nM. The antigen-loaded sensors were incubated in the diluted solutions to capture the whole IgG antibody for 300 s to record the association phase. Sensors were incubated in the kinetic buffer for 900 s to record the dissociation phase. The spin speed was 1000 rpm for all steps except the antigen loading step which was 400 rpm to control density of the antigen. The temperature of the performed assays was at 30° C. during the association and dissociation phases. The sensor data were baseline subtracted and further analyzed in GatorOne software (version 2.10) to determine the equilibrium dissociation constants (KD) of the antibodies by fitting the signals of the steady states to the 1:1 binding model.

T1 sequence (P01732 22-182 limits assumed): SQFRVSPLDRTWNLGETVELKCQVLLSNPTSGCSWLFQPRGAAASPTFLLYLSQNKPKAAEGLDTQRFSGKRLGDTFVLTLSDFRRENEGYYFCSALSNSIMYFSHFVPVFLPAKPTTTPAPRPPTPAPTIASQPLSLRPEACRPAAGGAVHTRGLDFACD

B1: CDB1017p (Fab, V domains shown)
VH: EVQLQQSGPELVKPGASVKISCKASRYTFTDYNLHWVKLSHEKSLEWIGFIYPYNGGTGYNQKFKNKAKLTVDYSSSTAYMELRSLTSVDAAVYYCARDHRYNEGVSFDYWGQGTTLTVSS
VL: NIVLTQSPASLAVSLGQRATISCRASESVDGFGNSFMNWYQQKPGQSPKLLIYLASNLESGVPARFSGSGSRTDFTLTIDPVEADDAATYYCQQNNEDPYTFGGGTKLEIK
notes: CDB1017p [sic]; also called CBD1017p; mouse CT8 F(ab)
- Kd [1]: 1.19 nM
- koff [1]: 7.76e-05 s⁻¹
- kon [1]: 65100 M⁻¹ s⁻¹

B2: CBD1032 (Fab, V domains shown)
VH: QVQLVQSGAEVKKPGASVKVSCKASRYTFTDYNLHWVRQAPGQGLEWMGFIYPYNGGTGYAQKFQGRVTMTRDTSTSTVYMELSSLRSEDTAVYYCARDHRYNEGVSFDYWGQGTTVTVSS
VL: DIQMTQSPSSLSASVGDRVTITCRASESVDGFGNSFMNWYQQKPGKAPKLLIYLASNLESGVPSRFSGSGSGTDFTLTISSLQPEDFATYYCQQNNEDPYTFGQGTKLEIK
notes: also called h1017-H1/L1 F(ab)
- Kd [2]: 1.59 nM
- koff [2]: 5.35e-05 s⁻¹
- kon [2]: 33700 M⁻¹ s⁻¹
- Kd [1]: 1.84 nM
- koff [1]: 9.45e-05 s⁻¹
- kon [1]: 51500 M⁻¹ s⁻¹

B3: CBD1034 (Fab, V domains shown)
VH: B2 VH with R72V, V79A
VL: B2 VL with M4L, V19A, G72R, L82V
notes: also called h1017-H2/L3 F(ab)
- Kd [2]: 1.82 nM
- koff [2]: 0.000187 s⁻¹
- kon [2]: 103000 M⁻¹ s⁻¹
- Kd [1]: 9.9 nM
- koff [1]: 0.000204 s⁻¹
- kon [1]: 20900 M⁻¹ s⁻¹

B4: CBD1035 (Fab, V domains shown)
VH: B2 VH with V20I, M48I, V68A, M70L, R72V, V79A, V117L
VL: B2 VL with M4L, V19A, L82V
notes: also called h1017-H3/L2 F(ab)
- Kd [2]: 8.02 nM
- koff [2]: 9.12e-05 s⁻¹
- kon [2]: 11400 M⁻¹ s⁻¹
- Kd [1]: 3.07 nM
- koff [1]: 0.000144 s⁻¹
- kon [1]: 46900 M⁻¹ s⁻¹

B5: CBD1036 (Fab, V domains shown)
VH: B2 VH with V20I, M48I, V68A, M70L, R72V, V79A, V117L
VL: B2 VL with M4L, V19A, G72R, L82V
notes: also called h1017-H3/L3 F(ab)
- Kd [2]: 1.68 nM
- koff [2]: 0.000194 s⁻¹
- kon [2]: 117000 M⁻¹ s⁻¹
- Kd [1]: 6.16 nM
- koff [1]: 0.000207 s⁻¹
- kon [1]: 33700 M⁻¹ s⁻¹

B6: CBD1037 (Fab, V domains shown)
VH: B2 VH with R72V, T74Y, V79A
VL: B2 VL with M4L, V19A, L82V
notes: also called h1017-H4/L2 F(ab)
- Kd [2]: 1.27 nM
- koff [2]: 9.71e-05 s⁻¹
- kon [2]: 76800 M⁻¹ s⁻¹
- Kd [1]: 1.72 nM
- koff [1]: 0.000114 s⁻¹
- kon [1]: 66000 M⁻¹ s⁻¹

B7: CBD1038 (Fab, V domains shown)
VH: B2 VH with R72V, T74Y, V79A
VL: B2 VL with M4L, V19A, G72R, L82V
notes: also called h1017-H4/L3 F(ab)
- Kd [2]: 7.42 nM
- koff [2]: 0.00014 s⁻¹
- kon [2]: 18900 M⁻¹ s⁻¹
- Kd [1]: 2.31 nM
- koff [1]: 0.000146 s⁻¹
- kon [1]: 63300 M⁻¹ s⁻¹

B8: CBD1039 (Fab, V domains shown)
VH: B2 VH with V20I, M48I, V68A, M70L, R72V, T74Y, V79A, V117L
VL: B2 VL with M4L, V19A, L82V
notes: also called h1017-H5/L2 F(ab)
- Kd [2]: 4.59 nM
- koff [2]: 9.27e-05 s⁻¹
- kon [2]: 20200 M⁻¹ s⁻¹
- Kd [1]: 3.11 nM
- koff [1]: 0.000157 s⁻¹
- kon [1]: 50400 M⁻¹ s⁻¹

B9: CBD1040 (Fab, V domains shown)
VH: B2 VH with V20I, M48I, V68A, M70L, R72V, T74Y, V79A, V117L
VL: B2 VL with M4L, V19A, G72R, L82V
notes: also called h1017-H5/L3 F(ab)
- Kd [2]: 7.39 nM
- koff [2]: 0.000103 s⁻¹
- kon [2]: 14000 M⁻¹ s⁻¹
- Kd [1]: 6.07 nM
- koff [1]: 0.00017 s⁻¹
- kon [1]: 28000 M⁻¹ s⁻¹

B10: CBD1380 (Fab, V domains shown)
VH: B2 VH with N55S, R72V, V79A
VL: B2 VL with M4L, V19A, L82V
- Kd [3]: 1.93 nM
- koff [3]: 0.000116 s⁻¹
- kon [3]: 59900 M⁻¹ s⁻¹

B11: CBD1381 (Fab, V domains shown)
VH: B2 VH with N55Q, R72V, V79A
VL: B2 VL with M4L, V19A, L82V
- Kd [3]: 1.22 nM
- koff [3]: 9.59e-05 s⁻¹
- kon [3]: 78600 M⁻¹ s⁻¹

B12: CBD1382 (Fab, V domains shown)
VH: B2 VH with N55A, R72V, V79A
VL: B2 VL with M4L, V19A, L82V
- Kd [3]: 0.86 nM
- koff [3]: 6.91e-05 s⁻¹
- kon [3]: 80300 M⁻¹ s⁻¹

B13: CBD1443 Fab (VL D30E of CBD1033) (Fab, V domains shown)
VH: B2 VH with R72V, V79A
VL: B2 VL with M4L, V19A, D30E, L82V
- Kd [3]: 10 nM
- koff [3]: 0.000284 s⁻¹
- kon [3]: 28400 M⁻¹ s⁻¹

B14: CBD1444 Fab (VL D30S of CBD1033) (Fab, V domains shown)
VH: B2 VH with R72V, V79A
VL: B2 VL with M4L, V19A, D30S, L82V
- Kd [3]: 7.69 nM
- koff [3]: 0.000196 s⁻¹
- kon [3]: 25500 M⁻¹ s⁻¹

B15: CBD1445 Fab (VL D30A of CBD1033) (Fab, V domains shown)
VH: B2 VH with R72V, V79A
VL: B2 VL with M4L, V19A, D30A, L82V
- Kd [3]: 15.6 nM
- koff [3]: 0.00048 s⁻¹
- kon [3]: 30700 M⁻¹ s⁻¹

B16: CBD1622 Fab (VL D30S and VH N55Q of CBD1033) (Fab, V domains shown)
VH: B2 VH with N55Q, R72V, V79A
VL: B2 VL with M4L, V19A, D30S, L82V
notes: also called D30S and N55Q
- Kd [3]: 2.91 nM
- koff [3]: 9.97e-05 s⁻¹
- kon [3]: 34300 M⁻¹ s⁻¹

B17: CBD1623 Fab (VL D30S and VH N55A of CBD1033) (Fab, V domains shown)
VH: B2 VH with N55A, R72V, V79A
VL: B2 VL with M4L, V19A, D30S, L82V
notes: also called D30S and N55A
- Kd [3]: 0.617 nM
- koff [3]: 7.02e-05 s⁻¹
- kon [3]: 114000 M⁻¹ s⁻¹

B18: CBD1033.42 disulfide-engineered F(ab') analog (IgG1, truncated P240) (Fab, V domains shown)
VH: B2 VH with R72V, V79A
VL: DIQLTQSPSSLSASVGDRATITCRASESVDGFGNSFMNWYQQKPGKAPKLLIYLASNLESGVPSRFSGSGSGTDFTLTISSVQPEDFATYYCQQNNEDPYTFGQGTKLEIKR
notes: also called .42 design
- Kd [4]: 5.09 nM
- koff [4]: 6.41e-05 s⁻¹
- kon [4]: 12600 M⁻¹ s⁻¹

B19: CBD1033.44 disulfide-engineered F(ab') analog (IgG1, truncated T238) (Fab, V domains shown)
VH: B2 VH with R72V, V79A
VL: B18 VL
notes: also called .44 design
- Kd [4]: 7.23 nM
- koff [4]: 8.88e-05 s⁻¹
- kon [4]: 12300 M⁻¹ s⁻¹

B20: CBD1033.45 disulfide-engineered F(ab') analog (IgG1, truncated T238, C233S) (Fab, V domains shown)
VH: B2 VH with R72V, V79A
VL: B18 VL
notes: also called .45 design
- Kd [4]: 9.03 nM
- koff [4]: 0.000117 s⁻¹
- kon [4]: 13000 M⁻¹ s⁻¹

B21: CBD1041 (antibody, human IgG1, kappa, L234A L235A, V domains shown)
VH: B2 VH with G59N, M70I, R72A, V79A, T116L
VL: EIVLTQSPGTLSLSPGERATLSCRASESVDGFGNSFMNWYQQKPGQAPRLLIYLASNLESGIPARFSGSGSGTDFTLTISRLEPEDFAVYYCQQNNEDPYTFGQGTKVEIKR
notes: also called h1017-H6/L4 whole antibody hIgG1-LALAPA
- Kd [5]: 10.2 nM

B22: CBD1042 (antibody, human IgG1, kappa, L234A L235A, V domains shown)
VH: B2 VH with M48I, M70I, R72A, V79A, T116L
VL: B21 VL
notes: also called h1017-H7/L4 whole antibody hIgG1-LALAPA
- Kd [5]: 3.59 nM

B23: CBD1044 (antibody, human IgG1, kappa, L234A L235A, V domains shown)
VH: B2 VH with M48I, M70I, R72A, V79A, T116L
VL: B21 VL with I62V, G72R
notes: also called h1017-H7/L6 whole antibody hIgG1-LALAPA
- Kd [5]: 8.65 nM

B24: CBD1045 (antibody, human IgG1, kappa, L234A L235A, V domains shown)
VH: B2 VH with M48I, Q65K, M70I, R72A, V79A, T116L
VL: B21 VL with I62V
notes: also called h1017-H8/L5 whole antibody hIgG1-LALAPA
- Kd [5]: 4.18 nM

B25: CBD1046 (antibody, human IgG1, kappa, L234A L235A, V domains shown)
VH: B2 VH with M48I, Q65K, M70I, R72A, V79A, T116L
VL: B21 VL with I62V, G72R
notes: also called h1017-H8/L6 whole antibody hIgG1-LALAPA
- Kd [5]: 9.78 nM

B26: CBD1047 (antibody, human IgG1, kappa, L234A L235A, V domains shown)
VH: B2 VH with M70L, R72V, T74Y, V79A, T116L
VL: B21 VL with I62V
notes: also called h1017-H9/L5 whole antibody hIgG1-LALAPA
- Kd [5]: 2.72 nM

B27: CBD1048 (antibody, human IgG1, kappa, L234A L235A, V domains shown)
VH: B2 VH with M70L, R72V, T74Y, V79A, T116L
VL: B21 VL with I62V, G72R
notes: also called h1017-H9/L6 whole antibody hIgG1-LALAPA
- Kd [5]: 5.45 nM
